Consider 11 substances from patent US20100211325A1.

Assay [1] addresses Laminin 511/521 (LM511/521) (UniProt O15230). The assay is described as follows: ELISA, 0.05 nM Lu gpFc captured by anti-human Fc, 5 nM LM511/521, anti-laminin detection.
The target is the same in assay [2]. Briefly: SPR (Biacore X), Lu gpFc captured on protein A chip (40 RU), 100 µl injection of 10 nM LM511/521, total change in RU.
Assay [3] shares this target. The assay is described as follows: ELISA in buffers of pH 4.0 to 11.0 and 1M NaCl, negative control Fc fusion protein captured, LM511/521 added.

Chain of Muc18 Fc fusion protein (negative control) (P43121 24-559): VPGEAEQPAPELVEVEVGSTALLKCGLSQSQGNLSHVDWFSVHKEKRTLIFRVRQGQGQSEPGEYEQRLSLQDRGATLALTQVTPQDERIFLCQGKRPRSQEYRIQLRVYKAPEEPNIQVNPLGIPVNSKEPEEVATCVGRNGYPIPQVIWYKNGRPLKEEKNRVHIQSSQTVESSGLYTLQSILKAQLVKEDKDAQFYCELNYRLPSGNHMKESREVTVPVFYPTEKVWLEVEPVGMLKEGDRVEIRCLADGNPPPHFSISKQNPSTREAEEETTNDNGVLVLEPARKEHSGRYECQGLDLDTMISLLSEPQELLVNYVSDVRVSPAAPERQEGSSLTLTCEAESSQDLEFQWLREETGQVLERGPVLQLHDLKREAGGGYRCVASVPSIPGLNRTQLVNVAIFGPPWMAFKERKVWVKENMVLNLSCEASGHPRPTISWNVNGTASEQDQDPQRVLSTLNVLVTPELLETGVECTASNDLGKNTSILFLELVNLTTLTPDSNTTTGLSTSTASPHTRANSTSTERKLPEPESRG

In assay [1], “Lu gpFc E309A (from UniProt P50895 32-547) (Fc fusion)” returned an ELISA % of native Lu gpFc of 40.4%. This substance registered a Biacore Δ RUs in assay [2] of 44.9 RU.

“Lu gpFc D316A (from UniProt P50895 32-547) (Fc fusion)” gave an ELISA % of native Lu gpFc in assay [1] of 75%. This substance registered a Biacore Δ RUs in assay [2] of 79.8 RU.

On to “Lu gpFc E234A (from UniProt P50895 32-547) (Fc fusion)”, for which, in assay [1], the ELISA % of native Lu gpFc came out at 90.7%. The same substance registered a Biacore Δ RUs in assay [2] of 85 RU. On to “Lu gpFc D315A (from UniProt P50895 32-547) (Fc fusion)”, for which, in assay [1], the ELISA % of native Lu gpFc worked out at 93.2%. This substance also came in with a Biacore Δ RUs in assay [2] of 116 RU.

For “Muc18 Fc fusion protein (negative control) (from UniProt P43121 24-559)”, in assay [3], the OD450 (background binding) lay in the range of 0.18 to 0.64 OD450. Regarding “Lu gpFc D312A (from UniProt P50895 32-547) (Fc fusion)”, the ELISA % of native Lu gpFc in assay [1] stood at 20.7%. This substance also had a Biacore Δ RUs in assay [2] of 4.4 RU. As for “Lu gpFc D310A (from UniProt P50895 32-547) (Fc fusion)”, the ELISA % of native Lu gpFc in assay [1] came out at 26.4%. For the same substance, the Biacore Δ RUs in assay [2] came to 38.5 RU.

In assay [1], “Lu gpFc E269A (from UniProt P50895 32-547) (Fc fusion)” had an ELISA % of native Lu gpFc of 63.2%. The Biacore Δ RUs in assay [2] came to 73.8 RU. On the same counts, the results for “Lu gpFc E281A (from UniProt P50895 32-547) (Fc fusion)” are 97.3% and 100 RU. Take “Lu gpFc E280A (from UniProt P50895 32-547) (Fc fusion)”: the ELISA % of native Lu gpFc in assay [1] turned out to be 73%. Besides, the Biacore Δ RUs in assay [2] stood at 99.1 RU.

Regarding “Lu gpFc D198A/D199A (from UniProt P50895 32-547) (Fc fusion)”, the ELISA % of native Lu gpFc in assay [1] worked out at 49%. Moreover, in assay [2], the Biacore Δ RUs was determined as 59.7 RU.
